Source: patent publication US20260242432A1 (NUVIG THERAPEUTICS, published 2026)

Columns and labels:
human FcRn [1] = molecular target: T1, human FcRn (human, UniProt P55899 24-297; P61769 21-119, limits assumed); assay: SPR, Fc loaded on anti-human Fc biosensors
T1 construct: also called hFcRn
Method: (§1) Dissociation constants (KDs) are plotted as μM (solid bars) and association constants (KAs) are plotted as Ms⁻¹ (hatched bars). (FIG. 9E and FIG. 9F) Female WT C57BL/6 (FIG. 9E) and humanized homozygous FcRn (Tg32) mice (FIG. 9F) were administered one dose of 50 mg/kg or 100 mg/kg of F241A/B4ST6 Fc or 10 mg/kg of Fc^Abdeg and serum mouse IgG was measured via ELISA out to day 7 post-dose. (FIG. 9G) SIGN-R1^{-/-} and hDC-SIGN⁺ murine bone marrow-derived macrophages (BMDMs) had their Fcγ receptors blocked then were incubated with PBS, F241A/B4ST6 Fc, or Fc^Abdeg and binding was detected by FACS using an anti-human IgG Fc antibody. […] (FIG. 911-9J) Female WT C57BL/6 mice (n=5 per group) and female and male SIGN-R1^{-/-} mice (n=5 per group) were administered arthritogenic K/BxN serum alongside PBS, 1 g/kg IVIG, 50 mg/kg F241A/B4ST6 Fc, or 10 mg/kg Fc^Abdeg in a preventative manner, and joint swelling was clinically scored for 10 days. […] Statistical significance was assessed using an ordinary one-way ANOVA with Tukey's multiple comparisons.
(§2) At the outset, the interactions between WT Fc, F241A/B4ST6 Fc, and Fc^Abdeg were tested with mouse and human FcRn using surface plasmon resonance (SPR). […] C57BL/6 and hFcRn (Tg32) mice were given a single intravenous injection of F241A/B4ST6 Fc or Fc^Abdeg and, following dosing, serum mIgG was determined via ELISA.

mouse FcRn [2] = molecular target: T2, mouse FcRn (mouse, UniProt Q61559 22-297; P01887 21-119, limits assumed); assay: SPR, Fc loaded on anti-human Fc biosensors
T2 construct: also called mFcRn; murine FcRn
T2 sequence (looked up) 1: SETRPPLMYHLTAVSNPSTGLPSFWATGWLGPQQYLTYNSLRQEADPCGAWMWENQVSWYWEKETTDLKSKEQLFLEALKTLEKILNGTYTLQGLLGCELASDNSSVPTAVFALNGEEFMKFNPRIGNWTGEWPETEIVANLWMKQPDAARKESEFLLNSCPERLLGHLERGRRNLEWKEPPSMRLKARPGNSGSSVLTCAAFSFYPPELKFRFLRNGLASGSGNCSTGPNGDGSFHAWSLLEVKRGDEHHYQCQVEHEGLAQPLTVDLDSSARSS
T2 sequence (looked up) 2: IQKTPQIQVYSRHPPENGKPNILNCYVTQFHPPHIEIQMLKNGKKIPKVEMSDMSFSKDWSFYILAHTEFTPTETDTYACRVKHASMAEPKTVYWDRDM
Method: as §1, §2

mouse FcRn [3] = molecular target: T2, mouse FcRn; assay: not stated in the sentence (apparently the SPR of Example 7)
human FcRn [4] = molecular target: T1, human FcRn; assay: SPR; Fc loaded on anti-human Fc biosensors, human FcRn in solution
Method: as §1, §2

[5] = molecular target: T3, human Dendritic Cell-Specific ICAM-3-Grabbing Non-Integrin (DC-SIGN) on hDC-SIGN^+/SIGN-R1^-/- murine bone … (human, UniProt Q9NNX6 1-404); assay: flow cytometry on hDC-SIGN^+/SIGN-R1^-/- BMDMs, Fc gamma receptors blocked, detection with anti-hIgG Fc antibody
T3 construct: whole, on cells; also called hCD209
T3 sequence (looked up): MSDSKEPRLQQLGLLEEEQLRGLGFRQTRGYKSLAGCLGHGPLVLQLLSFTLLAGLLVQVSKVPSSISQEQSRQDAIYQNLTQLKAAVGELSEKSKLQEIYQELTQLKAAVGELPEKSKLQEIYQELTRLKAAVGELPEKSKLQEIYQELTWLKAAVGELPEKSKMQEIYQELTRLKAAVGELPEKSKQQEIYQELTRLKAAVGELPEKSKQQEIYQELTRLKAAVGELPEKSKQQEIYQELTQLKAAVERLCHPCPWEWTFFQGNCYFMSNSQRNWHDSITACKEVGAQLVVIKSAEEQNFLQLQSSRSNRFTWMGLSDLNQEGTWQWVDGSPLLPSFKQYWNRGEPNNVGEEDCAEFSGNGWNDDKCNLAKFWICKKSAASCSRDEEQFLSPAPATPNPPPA
Method: Both IVIG and sialylated IgG Fc require the murine C-type lectin Specific ICAM3-Grabbing Non-Integrin Related-1 (SIGN-R1) to mediate anti-inflammatory activity in vivo. This requirement can be circumvented by introduction of SIGN-R1 human orthologue, Dendritic Cell-Specific ICAM-3-Grabbing Non-Integrin (DC-SIGN). Therefore, the ability of both F241A/B4ST6 Fc and Fc^Abdeg to bind DC-SIGN was examined via a cell-binding assay. […] Cells were cultured overnight in high glucose DMEM medium supplemented with 1× antibiotic-antimycotic and 1×FBS at 37° C. and 5% CO₂. The next day, supernatants were discarded and cells were detached with enzyme-free dissociation buffer. Suspended cells were collected and centrifuged for 10 minutes at 400 rpm. The pellet was resuspended and washed in binding buffer (1×TBS, […], 2.5% FBS and 0.05% sodium azide). Fc receptors were blocked by adding anti-mouse CD16/32 antibody clone 93. After blocking, cells were washed in binding buffer, after which 100 μg/mL of Fc^Abdeg and F241A/B4ST6 Fc were added to the cells, which were then incubated for 1 hour on ice. […] BMDMs were analyzed by flow cytometry to detect surface-bound IgG. No bound IgG were detected on the SIGN-R1^{-/-} BMDMs incubated with F241A/B4ST6 Fc or Fc^Abdeg (FIG. 9G). However, IgG was detected on hDC-SIGN⁺/SIGN-R1^{-/-} BMDMs treated with F241A/B4ST6 Fc, but not with Fc^Abdeg (FIG. 9G).

mouse FcRn [6] = molecular target: T2, mouse FcRn; assay: SPR; Fc loaded on anti-human Fc biosensors, mouse FcRn in solution
Method: as §1, §2

fold lower KD than F241A/B4ST6 Fc (human FcRn [1]): 39 fold
fold lower KD than F241A/B4ST6 Fc (mouse FcRn [2]): 267 fold
fold enhanced affinity compared to human FcRn (mouse FcRn [3]): 10 fold
Kd (human FcRn [4]): 5.2 nM
binding result [5]: no binding (tested: 100 µg/mL)
Kd (mouse FcRn [6]): 0.27 nM
B1: Fc^Abdeg polypeptide (efgartigimod), human IgG1 Fc with M252Y/S254T/T256E/H433K/N434F (other)
chain: DKTHTCPPCPAPELLGGPSVFLFPPKPKDTLYITREPEVTCVVVDVSHEDPEVKFNWYVDGVEVHNAKTKPREEQYNSTYRVVSVLTVLHQDWLNGKEYKCKVSNKALPAPIEKTISKAKGQPREPQVYTLPPSRDELTKNQVSLTCLVKGFYPSDIAVEWESNGQPENNYKTTPPVLDSDGSFFLYSKLTVDKSRWQQGNVFSCSVMHEALKFHYTQKSLSLSPG
notes: also called EFG Fc
